Assays:
VcCap5 [1] = assay: AUC; sedimentation velocity, apo VcCap5 at 0.8 mg/ml, 20 mM Tris-HCl pH 7.5, 200 mM NaCl, 55,000 rpm, 20 °C; c(s) fit in SEDFIT; monomer to dimer
VcCap5 [2] = assay: AUC; sedimentation velocity, VcCap5 with 3'2'-cGAMP, 0.8 mg/ml, 20 mM Tris-HCl pH 7.5, 200 mM NaCl, 55,000 rpm, 20 °C; c(s) fit in SEDFIT; dimer to tetramer

VcCap5 (enzyme)
stoichiometry N (VcCap5 [1]): 2 | stoichiometry N (VcCap5 [2]): 4
